What was measured:
PP1c = target: T1, PP1c (Oryctolagus cuniculus, UniProt P62143); test: Glycogen synthase phosphatase activity of PP1c; type: biochemical, rabbit
T1 construct: from tissue; host or cells: rabbit skeletal muscle (PP1G dissociated with LiBr)
Method: The glycogen synthase phosphatase activity of PP1c was measured after a 15 minute incubation at 30° C. with the indicated concentrations of M110-(M1-F38) and M110-(M1-E309). Similar results were obtained in three different experiments.
^32P-labelled rabbit skeletal muscle phosphorylase a (containing 1.0 mol phosphate per mol subunit) was prepared by phosphorylation with phosphorylase kinase, ^32P-labelled rabbit skeletal muscle glycogen synthase (containing 1.5 mol/mol subunit in the sites 3 region) was prepared by phosphorylation with glycogen synthase kinase-3 [24]). ^32P-labelled chicken gizzard MLC20 and ^32P-labelled chicken gizzard heavy meromyosin (containing 1.0 mol phosphate per mol subunit) were prepared by phosphorylation with smooth muscle myosin light chain kinase. The dephosphorylation of phosphorylase a (10 μM), glycogen synthase (1 μM) and MLC20 (1 μM) and heavy meromyosin (1 μM) was carried out as in [24]. One unit of activity (U) was that amount which released […] of phosphate in one minute.

myosin = target: T2, myosin (Gallus gallus, UniProt P10587); test: Myosin binding assay (pelleting with myosin); parameters: species or system chicken; conditions: myosin 1 μM, 15 min 0° C.
T2 construct: from tissue; host or cells: chicken gizzard
T2 sequence (P10587 whole entry): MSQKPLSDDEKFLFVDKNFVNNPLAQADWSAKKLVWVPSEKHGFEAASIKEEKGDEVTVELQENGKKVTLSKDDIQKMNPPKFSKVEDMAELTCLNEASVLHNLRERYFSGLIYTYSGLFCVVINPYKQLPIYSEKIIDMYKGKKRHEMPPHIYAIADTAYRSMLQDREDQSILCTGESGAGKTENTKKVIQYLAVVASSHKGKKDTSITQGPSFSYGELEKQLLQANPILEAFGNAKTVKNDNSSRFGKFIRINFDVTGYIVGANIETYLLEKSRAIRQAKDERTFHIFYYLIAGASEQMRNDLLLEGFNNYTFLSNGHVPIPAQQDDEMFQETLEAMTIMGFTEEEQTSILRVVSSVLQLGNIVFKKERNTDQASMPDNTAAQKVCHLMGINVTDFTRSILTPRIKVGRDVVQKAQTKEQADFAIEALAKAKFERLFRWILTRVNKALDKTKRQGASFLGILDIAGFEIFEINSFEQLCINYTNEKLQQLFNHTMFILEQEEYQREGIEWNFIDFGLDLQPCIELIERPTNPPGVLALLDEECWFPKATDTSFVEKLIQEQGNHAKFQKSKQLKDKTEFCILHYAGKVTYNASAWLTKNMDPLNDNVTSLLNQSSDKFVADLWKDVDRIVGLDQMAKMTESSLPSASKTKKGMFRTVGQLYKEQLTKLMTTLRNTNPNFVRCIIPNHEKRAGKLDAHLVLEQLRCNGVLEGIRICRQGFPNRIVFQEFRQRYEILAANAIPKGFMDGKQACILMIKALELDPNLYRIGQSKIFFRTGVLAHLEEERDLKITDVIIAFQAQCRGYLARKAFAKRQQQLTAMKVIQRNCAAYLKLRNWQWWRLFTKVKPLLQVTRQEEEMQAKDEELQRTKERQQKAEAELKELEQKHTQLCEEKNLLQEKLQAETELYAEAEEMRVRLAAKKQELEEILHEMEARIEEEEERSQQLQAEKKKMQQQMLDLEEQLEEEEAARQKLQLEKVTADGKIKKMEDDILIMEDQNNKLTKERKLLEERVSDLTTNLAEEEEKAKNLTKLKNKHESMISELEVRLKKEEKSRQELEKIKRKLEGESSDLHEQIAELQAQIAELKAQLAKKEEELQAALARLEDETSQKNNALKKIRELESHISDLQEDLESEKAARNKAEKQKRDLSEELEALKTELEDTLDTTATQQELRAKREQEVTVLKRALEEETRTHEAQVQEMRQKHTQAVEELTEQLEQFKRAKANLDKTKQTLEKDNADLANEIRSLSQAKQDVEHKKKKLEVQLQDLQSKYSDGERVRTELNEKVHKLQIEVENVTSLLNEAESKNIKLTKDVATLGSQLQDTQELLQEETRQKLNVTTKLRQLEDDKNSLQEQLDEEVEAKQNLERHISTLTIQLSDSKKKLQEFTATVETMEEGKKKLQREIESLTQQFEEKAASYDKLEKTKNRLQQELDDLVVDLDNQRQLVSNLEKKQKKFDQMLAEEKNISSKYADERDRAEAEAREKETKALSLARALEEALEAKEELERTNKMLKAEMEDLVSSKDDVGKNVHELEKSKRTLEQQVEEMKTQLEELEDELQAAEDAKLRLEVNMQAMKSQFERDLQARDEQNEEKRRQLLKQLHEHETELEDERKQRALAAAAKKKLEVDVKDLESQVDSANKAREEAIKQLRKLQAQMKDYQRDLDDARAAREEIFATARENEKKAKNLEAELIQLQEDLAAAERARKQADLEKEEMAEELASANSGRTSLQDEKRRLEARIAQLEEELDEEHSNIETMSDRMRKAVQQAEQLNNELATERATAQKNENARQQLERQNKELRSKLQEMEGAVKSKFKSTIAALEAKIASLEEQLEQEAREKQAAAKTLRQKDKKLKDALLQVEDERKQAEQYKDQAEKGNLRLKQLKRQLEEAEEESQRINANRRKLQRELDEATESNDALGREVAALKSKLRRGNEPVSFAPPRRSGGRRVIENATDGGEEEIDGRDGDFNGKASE
T2 sequence (P02612 whole entry partner): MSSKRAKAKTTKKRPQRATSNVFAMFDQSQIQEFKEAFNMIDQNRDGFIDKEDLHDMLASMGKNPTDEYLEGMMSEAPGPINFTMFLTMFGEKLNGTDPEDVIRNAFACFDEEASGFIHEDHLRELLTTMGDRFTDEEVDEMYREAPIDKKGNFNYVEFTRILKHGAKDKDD
T2 sequence (P02607 whole entry partner): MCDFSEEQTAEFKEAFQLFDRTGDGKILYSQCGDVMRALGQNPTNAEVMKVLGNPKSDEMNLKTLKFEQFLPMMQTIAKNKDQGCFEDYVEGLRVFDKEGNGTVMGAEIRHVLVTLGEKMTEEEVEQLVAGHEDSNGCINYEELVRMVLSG
In short: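 PP1M, PP1c, PP1M(ΔM21) or M110 fragments (30 nM; M110 fragments and M21 at 100 nM) incubated 15 min at 0° C with 1 μM myosin in 10 mM Hepes pH 7.5, 50 mM KCl, 5 mM MgCl2, then centrifuged 2 min at 13,000×g. Supernatant, pellet and total analysed by immunoblot or P-light chain phosphatase activity.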

T1 sequence (P62143 whole entry): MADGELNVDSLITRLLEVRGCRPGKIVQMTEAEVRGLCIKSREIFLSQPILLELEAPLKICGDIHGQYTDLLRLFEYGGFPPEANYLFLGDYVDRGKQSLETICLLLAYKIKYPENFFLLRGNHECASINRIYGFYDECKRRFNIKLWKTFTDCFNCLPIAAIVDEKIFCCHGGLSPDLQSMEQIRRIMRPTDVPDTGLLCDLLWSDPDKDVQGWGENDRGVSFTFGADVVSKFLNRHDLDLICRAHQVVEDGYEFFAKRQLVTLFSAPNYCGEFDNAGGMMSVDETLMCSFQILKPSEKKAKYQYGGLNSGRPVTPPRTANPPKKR

B1: M110-(M1-E309): rat aorta M110 fragment, residues 1-309, released from GST-fusion protein with thrombin (protein)
chain: GSPGMKMADAKQKRNEQLKRWIGSETDLEPPVVKRQKTKVKFDDGAVFLAACSSGDTDEVLKLLHRGADINYANVDGLTALHQACIDDNVDMVKFLVENGANINQPDNEGWIPLHAAASCGYLDIAEFLIGQGAHVGAVNSEGDTPLDIAEEEAMEELLQNEVNRQGVDIEAARKEEERIMLRDARQWLNSGHISDVRHAKSGGTALHVAAAKGYTEVLKLLIQAGYDVNIKDYDGWTPLHAAAHWGKEEACRILVDNLCDMETVNKVGQTAFDVADEDILGYLEELQKKQNLLHSEKRDKKSPLIESTANMEA
effect on the dephosphorylation of glycogen synthase by PP1c (PP1c): inhibited
binding to myosin (myosin): did not bind to myosin

From patent US6884600B1, “Protein phosphatase-1 catalytic subunit interactions” (Medical Research Council London, priority 1996, dated 2005)
